Laboratory results reported in the supplement of paper PMC9170038.

System: MS2 coat protein
Assay: apparent KD of MS2 coat protein; designed switch direction (-1 OFF switch, 1 ON switch): -1; higher = weaker reporter binding
In short: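 Designed RNA switches were transcribed on Illumina chips by stalled E. coli RNA polymerase and titrated with SNAP-549-labelled MS2 coat protein from 0.7 or 1.5 nM, doubling to 3 µM. Step length ran from 0.8–1.5 h at the lowest concentration to 10–20 min at the highest. The apparent KD is the median over clusters for each design, from curve-fitted normalised cluster fluorescence.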

[1] = input ligand: microRNA oligo, concentration not stated
[2] = Eterna round: R95, input ligand: microRNA oligo, concentration not stated
[3] = Eterna round: R95, input ligand: FMN 200 uM
[4] = Eterna round: R95, input ligand: none

Row | Sequence | apparent KD of MS2 coat protein (input ligand: FMN 200 uM) | apparent KD of MS2 coat protein (input ligand: none) | apparent KD of MS2 coat protein [1] | apparent KD of MS2 coat protein [2] | apparent KD of MS2 coat protein [3] | apparent KD of MS2 coat protein [4]
1 | AAAUUGUGAGGAUAUUCGAUGAACACGGAGACGUGUUUAUCGGAGAAGGCACAUGAGGAUCACCCAUGUUCCUU [Mat - Exclusion 4 - JL Mod - D24] (Eterna round: R97, puzzle: Exclusion 4) | 80.4 nM | 16.3 nM | – | – | – | –
2 | CAGUACUGAGGAUAUACAUGAGGAUCACCCAUGUGAAAUGCAUAGGAAACUAUGCUAUGUAGAAGGCAGUACUG [Eli x3 4.03] (Eterna round: R97, puzzle: Exclusion 3) | 108 nM | 18.5 nM | – | – | – | –
3 | ACACUGCGAGGAUAUACAUGAGGAUCACCCAUGUUAAGGAAGUCAAGGUUAAUUUAAGGUAGAAGGCGCGUAUU [JR_Ex3_Sub012] (Eterna round: R97, puzzle: Exclusion 3) | 54.6 nM | 38.2 nM | – | – | – | –
4 | GUCGUGCAGCUUUGCUGUACGAGUACAUGAGGAUCACCCAUGUAGGAUAUGGUACGCUUUGCGUGCUAGAAGGAUAUGUGUAGA [salish99_ExNG3_r04_502] (Eterna round: R96, puzzle: Exclusion NG 3) | 53.5 nM | 36.1 nM | 30.2 nM | – | – | –
5 | UCCCAACAUGAGGAUCACCCAUGUAAGGAUAUCCAUGGACGACGGCAUUGUUCCCGGCGGAGAAGGUGCAUGGU [EX1 B.21] (Eterna round: R97, puzzle: Exclusion 1) | 46.4 nM | 27.6 nM | – | – | – | –
6 | CUGGUGCGCGGAGGAUAUCGGAAAGGAAGUGUACGAGAAGGUCGUUCCACCAAACAUGAGGAUCACCCAUGUAGGAGUGACCUC [PowerStrip EXNG 1.7] (Eterna round: R96, puzzle: Exclusion NG 1) | 127 nM | 62.9 nM | 45.6 nM | – | – | –
7 | CUGAUGUGAGGAUAUCUAAGGCGACCAUGAGACAUGGGCCAAGAGAAGGCACAUGAGGAUCACCCAUGUACCGA [Anertees] (Eterna round: R97, puzzle: Exclusion 4) | 83.8 nM | 22.2 nM | – | – | – | –
8 | UGUUGUCGCGUAGGAUAUGAGGAUCACCCAUAUAGAGGAUAUGAAAAGAAGGCUCUGAGGAUUACCCAGAAGGACGGGACAACU [pwkr exNG2 2xF5 2xFMN.22] (Eterna round: R96, puzzle: Exclusion NG 2) | 1180 nM | 155 nM | 132 nM | – | – | –
9 | CUGAGUUCAGGAUAUACAUGAGGAUCACCCAUGUAAAGUAGCUUGCGUACAGGCAGAUGUAGAAGGGAAUUCGG [Mod of JL 6 - Jieux - Exclusion 3] (Eterna round: R97, puzzle: Exclusion 3) | 30.2 nM | 19 nM | – | – | – | –
10 | AGAUGGCGAGGAUAUACAUGAGGAUCACCCAUGUGAGAGAAUAAAGUGAGGAAGAAAAGUAGAAGGCGCUGUCA [Mat - Exclusion 3 - Mod of Salish D10] (puzzle: Exclusion 3) | – | – | – | 43.3 nM | – | –
11 | GCAGCAUAGUUAACAUACUGUUACAUGAGGAUCACCCAUGUACAGGAUAUGGUCUGGAUUACAGGCCAGAAGGGUACAAGCUGC [Eli exng3 - 020] (Eterna round: R96, puzzle: Exclusion NG 3) | 10.7 nM | 12.6 nM | 7.8 nM | – | – | –
12 | GAUCAUGCAGGAUAUACAGUUUCCAUGAUAACAUGGUCCUCACAUGAGGAUCACCCAUGUAGAAGGGCAUGAUC [Omei Ex2 A29] (Eterna round: R97, puzzle: Exclusion 2) | 258 nM | 1080 nM | – | – | – | –
13 | AUACAACAUGAGGAUCACCCAUGUGAGGAUAUGCGAUACAUCAUCAUCAUCAUCAAUCGCAGAAGGCACAACAU [Different] (puzzle: Exclusion 1) | – | – | – | 52.3 nM | – | –
14 | GGUUAUUGCAAGGAUAUGCUUAUUUGAGAAAUUGCAGAAGGUGCAACAUGAGGAUCACCCAUGUUGGAUGGGUU [JR_E6_Sub016] (puzzle: Exclusion 6) | – | – | – | 60.7 nM | – | –
15 | UUUAAGUCAGGAUAUCGUUAAUUUAAUAAAUUAAUUUAAUUCGAGAAGGGACAUGAGGAUCACCCAUGUAAUUU [Ex4 #2] (Eterna round: R97, puzzle: Exclusion 4) | 33.5 nM | 28 nM | – | – | – | –
16 | GCCUUAUCCGUCAGGAUAUACAUUUUUUUUUUUUUGUAGAAGGGACAUGAGGAUCACCCAUGUACAUUACAUUG [alecazam17] (Eterna round: R97, puzzle: Brourd's mod of Exclusion 4) | 41 nM | 22.9 nM | – | – | – | –
17 | GGUAUACAUGAGGAUCACCCAUGUCAGGAUAUGGCGGCGUCGGCGAAAGCGGAGGCGGCCAGAAGGGACGAUAG [AK-MS2ROC-r4-exclusion1-6.1] (Eterna round: R97, puzzle: Exclusion 1) | 70.7 nM | 124 nM | – | – | – | –
18 | GGAAGGUGAGGAUAUACAAAGACGGAAACGUCAGGUGAGAGACAUGAGGAUCACCCAUGUAGAAGGCACGGAGA [AK-MS2ROC-r4-exclusion2-16.1] (Eterna round: R97, puzzle: Exclusion 2) | 279 nM | 74.4 nM | – | – | – | –
19 | AAUAAUAAGGAGGAUAUCGUAUCGGAAACGAUACGAGAAGGCCUAACAUGAGGAUCACCCAUGUUCCUUAAAUA [Mat - Exclusion 6 - Eli Mod - D61] (puzzle: Exclusion 6) | – | – | – | 19.1 nM | 37.3 nM | 20.1 nM
20 | AUAGGAGUAGGAUAUUCAGUUCGACACAUGAGGAUCACCCAUGUCGCUGUGGCCGGGCACGGAGAAGGAUUGUUGU [Eternabot (L1) Solution 15] (Eterna round: R97, puzzle: Exclusion 5) | 39.1 nM | 36.3 nM | – | – | – | –
21 | CCUCAGUAAGGAUAUCAGCUUAUGGAGGUGGUAAUGAGAGCUGAGAAGGUACAUGAGGAUCACCCAUGUUAGUU [JL Zatite mod 1] (puzzle: Exclusion 4) | – | – | – | 46.2 nM | – | –
22 | CAGUACUGAGGAUAUACAUGAGGAUCACCCAUGUCUUCCAGCUAGGAUACUAGCAAAUGUAGAAGGCAGUACUG [Mat - Exclusion 3 - Eli Mod - D9] (Eterna round: R97, puzzle: Exclusion 3) | 428 nM | 68.1 nM | – | – | – | –
23 | GAUCAUGCAGGAUAUACAUGGAUCAUGAAAACAUGGAUUUCACAUGAGGAUCACCCAUGUAGAAGGGCAUGAUC [Omei Ex2 A10] (Eterna round: R97, puzzle: Exclusion 2) | 47.5 nM | 141 nM | – | – | – | –
24 | GGUCUGCGAGGAUAUACAUGAGGAUCACCCAUGUGCGAGUUACUUGUGAGGUCGGUUGGUAGAAGGCGCGGACG [JL-ex3-2.10 salish99 mod] (puzzle: Exclusion 3) | – | – | – | 68.6 nM | 51.9 nM | 86.8 nM
25 | AAUGUGUGAGGAUAUUAGUUGUACGUCAAUAGACGUAUAAGUGAGAAGGCACAUGAGGAUCACCCAUGUUCCUG [Omei Ex4 Mod of Mat's R95 mod of Omei v6] (Eterna round: R97, puzzle: Exclusion 4) | 109 nM | 24.9 nM | – | – | – | –
26 | UUUAAUUUUUUUUUUUUACAAGCUUUUUGCUCGUCUUAUACAUGAGGAUCACCCAUGUGGGUAGAAGGUAAAUUAUC [JMF 66] (puzzle: Sensor v3, turn-off variant 2) | – | – | – | 64.9 nM | 24.3 nM | 22.4 nM
